These results are taken from paper PMC8252718, “carba Nicotinamide Adenine Dinucleotide Phosphate: Robust Cofactor for Redox Biocatalysis” (Angewandte Chemie (International Ed. in English), 2021).

Substrate in data set [1]: NC(=O)c1ccc[n+]([C@@H]2C[C@H](COP(=O)(O)OP(=O)(O)OC[C@H]3O[C@@H](n4cnc5c(N)ncnc54)[C@H](OP(=O)(O)O)[C@@H]3O)[C@@H](O)[C@H]2O)c1
Put plainly: steady-state kinetics. Type of data set: biochemical, Saccharolobus solfataricus. To be noted: sugar oxidation; D-glucose activity about half of that with NADP+; varied: cofactor. An excerpt: (§1) steady-state kinetics on SsGDH | Looking deeper into the kinetic parameters of a selection of five enzymes | decreased Michaelis constant (K m) for the biomimetic for most of the enzymes

Substrate in data set [2]: NC(=O)c1ccc[n+]([C@@H]2O[C@H](COP(=O)(O)OP(=O)(O)OC[C@H]3O[C@@H](n4cnc5c(N)ncnc54)[C@H](OP(=O)(O)O)[C@@H]3O)[C@@H](O)[C@H]2O)c1
Description: steady-state kinetics. It is filed as biochemical, Saccharolobus solfataricus. The settings on record: sugar oxidation; natural cofactor; varied: cofactor.
Source text: as §1

Substrate in data set [3]: NC(=O)c1ccc[n+]([C@@H]2C[C@H](COP(=O)(O)OP(=O)(O)OC[C@H]3O[C@@H](n4cnc5c(N)ncnc54)[C@H](OP(=O)(O)O)[C@@H]3O)[C@@H](O)[C@H]2O)c1
Description: purified protein, by the assay type. Set-up: Spectrophotometric steady-state kinetics with varied oxidised cofactor in 96-well plates. The settings on record: pH 8.0. An excerpt: (§2) 12 cofactor concentrations of both cofactors ([NADP+ ] or [cNADP+ ]) x 2 (duplicates) = 48 reaction mixtures The enzyme concentration [E] as well as the buffer concentration [buffer] and the measurement conditions ( such as temperature of measurement (Tmeasure); volume (V), preheating time (theat), sequence of process steps (pipetting, preheating, addition of enzyme and measurement) were kept constant for the measurements of a kinetic. The reaction mixtures were pipetted in MTPs with the help of LHS, followed by preheating of the mixture and addition of 25 µL of enzyme solution was added with an electric MCP in multi-dispense mode, and measurement in an Epoch 2 - BioTek photometer. […] Detailed values of concentrations and reaction conditions can be found in the corresponding figures and their discriptons. SUPPORTING INFORMATION S5 Enzymatic activity measurements for NADP+ and carba-NADP+ All assays were performed in 96-well MTP plates in a reaction volume of 200 µL. Reactions were started by adding the enzyme. A detailed overview is given in (Table 2) showing the preferred reaction, the acceptance towards both cofactors (NADP(H) and carba-NADP(H)) and further reaction conditions. For all reactions, multiple negative reactions, were performed without adding a cofactor, enzyme or substrate, respectively. Production of carba-NADP+ The cofactor carba-NADP+ was prepared according to literature(WO 2011/012270 A1) by means of chemical and biocatalytical methods.[2] […] Reaction was followed spectrophotometrically. After full reduction, SsGDH was removed using a centrifugal filter with 10 kDa cut-off. The reduced cofactor was stored at -80 °C until further use. 10 mM stock was diluted 1:10 within the final reaction mixture. Biocatalytic approaches using (carba)-NADPH thus contained 2 mM glucose, 1 mM gluconic acid and 0.2 mM Tris-HCl as contaminants.

Substrate in data set [4]: NC(=O)c1ccc[n+]([C@@H]2O[C@H](COP(=O)(O)OP(=O)(O)OC[C@H]3O[C@@H](n4cnc5c(N)ncnc54)[C@H](OP(=O)(O)O)[C@@H]3O)[C@@H](O)[C@H]2O)c1
Description: purified protein, by the assay type. Also on record: Spectrophotometric steady-state kinetics with varied oxidised cofactor in 96-well plates. The settings on record: pH 8.0.
Source text: as §2

B1: SsGDH (Saccharolobus solfataricus) (protein)
chain: MKAIIVKPPNAGVQVKDVDEKKLDSYGKIKIRTIYNGICGTDREIVNGKLTLSTLPKGKDFLVLGHEAIGVVEESYHGFSQGDLVMPVNRRGCGICRNCLVGRPDFCETGEFGEAGIHKMDGFMREWWYDDPKYLVKIPKSIEDIGILAQPLADIEKSIEEILEVQKRVPVWTCDDGTLNCRKVLVVGTGPIGVLFTLLFRTYGLEVWMANRREPTEVEQTVIEETKTNYYNSSNGYDKLKDSVGKFDVIIDATGADVNILGNVIPLLGRNGVLGLFGFSTSGSVPLDYKTLQEIVHTNKTIIGLVNGQKPHFQQAVVHLASWKTLYPKAAKMLITKTVSINDEKELLKVLREKEHGEIKIRILWE
notes: details only in supplement
By Km is commonly meant the concentration of substrate that gives half-maximal velocity. In general, kcat refers to the maximal rate divided by the concentration of active sites. For B1, the results for the Michaelis-Menten constant (Km) in the data set “steady-state kinetics [1]” and in “steady-state kinetics [2]” were 10 µM and 80 µM, respectively. For the same protein, the kcat was 1.0 s⁻¹ in the data set “steady-state kinetics [1]” and 2.25 s⁻¹ in “steady-state kinetics [2]”.

B2: ScG6PDH (Saccharomyces cerevisiae S288C) (protein)
chain: SEGPVKFEKNTVISVFGASGDLAKKKTFPALFGLFREGYLDPSTKIFGYARSKLSMEEDLKSRVLPHLKKPHGEADDSKVEQFFKMVSYISGNYDTDEGFDELRTQIEKFEKSANVDVPHRLFYLALPPSVFLTVAKQIKSRVYAENGITRVIVEKPFGHDLASARELQKNLGPLFKEEELYRIDHYLGKELVKNLLVLRFGNQFLNASWNRDNIQSVQISFKERFGTEGRGGYFDSIGIIRDVMQNHLLQIMTLLTMERPVSFDPESIRDEKVKVLKAVAPIDTDDVLLGQYGKSEDGSKPAYVDDDTVDKDSKCVTFAAMTFNIENERWEGVPIMMRAGKALNESKVEIRLQYKAVASGVFKDIPNNELVIRVQPDAAVYLKFNAKTPGLSNATQVTDLNLTYASRYQDFWIPEAYEVLIRDALLGDHSNFVRDDELDISWGIFTPLLKHIERPDGPTPEIYPYGSRGPKGLKEYMQKHKYVMPEKHPYAWPVTKPEDTKDN
notes: details only in supplement
Broadly, the Vmax is the top rate of the reaction or transport when substrate is in excess. As usually defined, the kcat/Km is the turnover number divided by the Michaelis constant. B2: in data set [3], the Km amounted to 26 µM, the Vmax came out at 14 µmol/min/mg, the turnover number (kcat) amounted to 13.4 s⁻¹ and the kcat/Km is 516000 M⁻¹ s⁻¹. Also, in data set [4], the Km turned out to be 157 µM, the Vmax stood at 245 µmol/min/mg, the kcat amounted to 235 s⁻¹ and the specificity constant (kcat/Km) came out at 1.5e+06 M⁻¹ s⁻¹.

B3: LmG6PDH (Leuconostoc mesenteroides) (protein)
chain: VSEIKTLVTFFGGTGDLAKRKLYPSVFNLYKKGYLQKHFAIVGTARQALNDDEFKQLVRDSIKDFTDDQAQAEAFIEHFSYRAHDVTDAASYAVLKEAIEEAADKFDIDGNRIFYMSVAPRFFGTIAKYLKSEGLLADTGYNRLMIEKPFGTSYDTAAELQNDLENAFDDNQLFRIDHYLGKEMVQNIAALRFGNPIFDAAWNKDYIKNVQVTLSEVLGVEERAGYYDTAGALLDMIQNHTMQIVGWLAMEKPESFTDKDIRAAKNAAFNALKIYDEAEVNKYFVRAQYGAGDSADFKPYLEELDVPADSKNNTFIAGELQFDLPRWEGVPFYVRSGKRLAAKQTRVDIVFKAGTFNFGSEQEAQEAVLSIIIDPKGAIELKLNAKSVEDAFNTRTIDLGWTVSDEDKKNTPEPYERMIHDTMNGDGSNFADWNGVSIAWKFVDAISAVYTADKAPLETYKSGSMGPEASDKLLAANGDAWVFKG
notes: details only in supplement
As to B3, in data set [3], the Km is 27 µM, the maximum rate (Vmax) worked out at 45 µmol/min/mg, the kcat worked out at 40.7 s⁻¹ and the kcat/Km worked out at 1.51e+06 M⁻¹ s⁻¹. Besides, in data set [4], the Michaelis constant (Km) was determined as 75 µM, the maximum rate (Vmax) is 166 µmol/min/mg, the kcat came out at 150 s⁻¹ and the kcat/Km is 2e+06 M⁻¹ s⁻¹.
